Assay results as given in patent US20060068468A1 (ACCELERON PHARMA, published 2006).

T1: Activin A (UniProt P08476 311-426)
T1 construct: also called ActA
T1 sequence (looked up): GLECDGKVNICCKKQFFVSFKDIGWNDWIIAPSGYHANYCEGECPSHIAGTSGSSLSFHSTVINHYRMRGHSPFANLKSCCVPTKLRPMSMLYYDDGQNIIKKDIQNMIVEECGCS

T2: GDF-11 (UniProt O95390 299-407)
T2 construct: also called Growth and Differentiation Factor-11; BMP11
T2 sequence (looked up): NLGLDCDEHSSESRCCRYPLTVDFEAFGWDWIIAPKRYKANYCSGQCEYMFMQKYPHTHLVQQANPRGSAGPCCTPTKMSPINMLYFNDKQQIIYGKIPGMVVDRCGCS


Tests used:
Activin A = target: T1, Activin A; assay: BiaCore, ligand immobilized on CM5 chip
Method: (§1) GDF-11 or Activin A (“ActA”) were immobilized on a BiaCore CM5 chip using standard amine coupling procedure. The ActRIIB-Fc mutant or wild-type protein was loaded onto the system, and binding was measured.

GDF-11 [1] = target: T2, GDF-11; assay: BiaCore, ligand immobilized on CM5 chip
Method: as §1

GDF-11 [2] = target: T2, GDF-11; assay: BiaCore (SPR); ligand amine-coupled to CM5 chip, ActRIIB-Fc injected
Method: as §1

binding result (Activin A)	binding result (GDF-11 [1])	Kd (GDF-11 [2]) [nM]	binding result (GDF-11 [2])	Binder
no binding	no binding			ActRIIB-Fc D80A (Fc fusion, Mutation in the background ActRIIB-Fc) SGRGEAETRECIYYNANWELERTNQSGLERCEGEQDKRLHCYASWANSSGTIELVKKGCWLADFNCYDRQECVATEENPQVYFCCCEGNFCNERFTHLPEAGGGTHTCPPCPAPELLGGPSVFLFPPKPKDTLMISRTPEVTCVVVDVSHEDPEVKFNWYVDGVEVHNAKTKPREEQYNSTYRVVSVLTVLHQDWLNGKEYKCKVSNKALPVPIEKTISKAKGQPREPQVYTLPPSREEMTKNQVSLTCLVKGFYPSDIAVEWESNGQPENNYKTTPPVLDSDGSFFLYSKLTVDKSRWQQGNVFSCSVMHEALHNHYTQKSLSLSPGK
no binding	no binding			ActRIIB-Fc W78A (Fc fusion, Mutation in the background ActRIIB-Fc) SGRGEAETRECIYYNANWELERTNQSGLERCEGEQDKRLHCYASWANSSGTIELVKKGCALDDFNCYDRQECVATEENPQVYFCCCEGNFCNERFTHLPEAGGGTHTCPPCPAPELLGGPSVFLFPPKPKDTLMISRTPEVTCVVVDVSHEDPEVKFNWYVDGVEVHNAKTKPREEQYNSTYRVVSVLTVLHQDWLNGKEYKCKVSNKALPVPIEKTISKAKGQPREPQVYTLPPSREEMTKNQVSLTCLVKGFYPSDIAVEWESNGQPENNYKTTPPVLDSDGSFFLYSKLTVDKSRWQQGNVFSCSVMHEALHNHYTQKSLSLSPGK
no binding	no binding			ActRIIB-Fc D80G (Fc fusion, Mutation in the background ActRIIB-Fc) SGRGEAETRECIYYNANWELERTNQSGLERCEGEQDKRLHCYASWANSSGTIELVKKGCWLGDFNCYDRQECVATEENPQVYFCCCEGNFCNERFTHLPEAGGGTHTCPPCPAPELLGGPSVFLFPPKPKDTLMISRTPEVTCVVVDVSHEDPEVKFNWYVDGVEVHNAKTKPREEQYNSTYRVVSVLTVLHQDWLNGKEYKCKVSNKALPVPIEKTISKAKGQPREPQVYTLPPSREEMTKNQVSLTCLVKGFYPSDIAVEWESNGQPENNYKTTPPVLDSDGSFFLYSKLTVDKSRWQQGNVFSCSVMHEALHNHYTQKSLSLSPGK
no binding	no binding			ActRIIB-Fc D80K (Fc fusion, Mutation in the background ActRIIB-Fc) SGRGEAETRECIYYNANWELERTNQSGLERCEGEQDKRLHCYASWANSSGTIELVKKGCWLKDFNCYDRQECVATEENPQVYFCCCEGNFCNERFTHLPEAGGGTHTCPPCPAPELLGGPSVFLFPPKPKDTLMISRTPEVTCVVVDVSHEDPEVKFNWYVDGVEVHNAKTKPREEQYNSTYRVVSVLTVLHQDWLNGKEYKCKVSNKALPVPIEKTISKAKGQPREPQVYTLPPSREEMTKNQVSLTCLVKGFYPSDIAVEWESNGQPENNYKTTPPVLDSDGSFFLYSKLTVDKSRWQQGNVFSCSVMHEALHNHYTQKSLSLSPGK
no binding	no binding			ActRIIB-Fc E37A (Fc fusion, Mutation in the background ActRIIB-Fc) SGRGEAETRECIYYNANWALERTNQSGLERCEGEQDKRLHCYASWANSSGTIELVKKGCWLDDFNCYDRQECVATEENPQVYFCCCEGNFCNERFTHLPEAGGGTHTCPPCPAPELLGGPSVFLFPPKPKDTLMISRTPEVTCVVVDVSHEDPEVKFNWYVDGVEVHNAKTKPREEQYNSTYRVVSVLTVLHQDWLNGKEYKCKVSNKALPVPIEKTISKAKGQPREPQVYTLPPSREEMTKNQVSLTCLVKGFYPSDIAVEWESNGQPENNYKTTPPVLDSDGSFFLYSKLTVDKSRWQQGNVFSCSVMHEALHNHYTQKSLSLSPGK
	no binding			ActRIIB-Fc K55A (Fc fusion, Mutation in the background ActRIIB-Fc) SGRGEAETRECIYYNANWELERTNQSGLERCEGEQDARLHCYASWANSSGTIELVKKGCWLDDFNCYDRQECVATEENPQVYFCCCEGNFCNERFTHLPEAGGGTHTCPPCPAPELLGGPSVFLFPPKPKDTLMISRTPEVTCVVVDVSHEDPEVKFNWYVDGVEVHNAKTKPREEQYNSTYRVVSVLTVLHQDWLNGKEYKCKVSNKALPVPIEKTISKAKGQPREPQVYTLPPSREEMTKNQVSLTCLVKGFYPSDIAVEWESNGQPENNYKTTPPVLDSDGSFFLYSKLTVDKSRWQQGNVFSCSVMHEALHNHYTQKSLSLSPGK
no binding	no binding			ActRIIB-Fc D80N (Fc fusion, Mutation in the background ActRIIB-Fc) SGRGEAETRECIYYNANWELERTNQSGLERCEGEQDKRLHCYASWANSSGTIELVKKGCWLNDFNCYDRQECVATEENPQVYFCCCEGNFCNERFTHLPEAGGGTHTCPPCPAPELLGGPSVFLFPPKPKDTLMISRTPEVTCVVVDVSHEDPEVKFNWYVDGVEVHNAKTKPREEQYNSTYRVVSVLTVLHQDWLNGKEYKCKVSNKALPVPIEKTISKAKGQPREPQVYTLPPSREEMTKNQVSLTCLVKGFYPSDIAVEWESNGQPENNYKTTPPVLDSDGSFFLYSKLTVDKSRWQQGNVFSCSVMHEALHNHYTQKSLSLSPGK
no binding	no binding			ActRIIB-Fc D80M (Fc fusion, Mutation in the background ActRIIB-Fc) SGRGEAETRECIYYNANWELERTNQSGLERCEGEQDKRLHCYASWANSSGTIELVKKGCWLMDFNCYDRQECVATEENPQVYFCCCEGNFCNERFTHLPEAGGGTHTCPPCPAPELLGGPSVFLFPPKPKDTLMISRTPEVTCVVVDVSHEDPEVKFNWYVDGVEVHNAKTKPREEQYNSTYRVVSVLTVLHQDWLNGKEYKCKVSNKALPVPIEKTISKAKGQPREPQVYTLPPSREEMTKNQVSLTCLVKGFYPSDIAVEWESNGQPENNYKTTPPVLDSDGSFFLYSKLTVDKSRWQQGNVFSCSVMHEALHNHYTQKSLSLSPGK
		86		ActRIIB-Fc WT (64R) (Fc fusion, also called A64R) SGRGEAETRECIYYNANWELERTNQSGLERCEGEQDKRLHCYASWRNSSGTIELVKKGCWLDDFNCYDRQECVATEENPQVYFCCCEGNFCNERFTHLPEAGGGTHTCPPCPAPELLGGPSVFLFPPKPKDTLMISRTPEVTCVVVDVSHEDPEVKFNWYVDGVEVHNAKTKPREEQYNSTYRVVSVLTVLHQDWLNGKEYKCKVSNKALPVPIEKTISKAKGQPREPQVYTLPPSREEMTKNQVSLTCLVKGFYPSDIAVEWESNGQPENNYKTTPPVLDSDGSFFLYSKLTVDKSRWQQGNVFSCSVMHEALHNHYTQKSLSLSPGK
no binding			binds	ActRIIB-Fc D80I (Fc fusion, Mutation in the background ActRIIB-Fc) SGRGEAETRECIYYNANWELERTNQSGLERCEGEQDKRLHCYASWANSSGTIELVKKGCWLIDFNCYDRQECVATEENPQVYFCCCEGNFCNERFTHLPEAGGGTHTCPPCPAPELLGGPSVFLFPPKPKDTLMISRTPEVTCVVVDVSHEDPEVKFNWYVDGVEVHNAKTKPREEQYNSTYRVVSVLTVLHQDWLNGKEYKCKVSNKALPVPIEKTISKAKGQPREPQVYTLPPSREEMTKNQVSLTCLVKGFYPSDIAVEWESNGQPENNYKTTPPVLDSDGSFFLYSKLTVDKSRWQQGNVFSCSVMHEALHNHYTQKSLSLSPGK
no binding	no binding			ActRIIB-Fc D80R (Fc fusion, Mutation in the background ActRIIB-Fc) SGRGEAETRECIYYNANWELERTNQSGLERCEGEQDKRLHCYASWANSSGTIELVKKGCWLRDFNCYDRQECVATEENPQVYFCCCEGNFCNERFTHLPEAGGGTHTCPPCPAPELLGGPSVFLFPPKPKDTLMISRTPEVTCVVVDVSHEDPEVKFNWYVDGVEVHNAKTKPREEQYNSTYRVVSVLTVLHQDWLNGKEYKCKVSNKALPVPIEKTISKAKGQPREPQVYTLPPSREEMTKNQVSLTCLVKGFYPSDIAVEWESNGQPENNYKTTPPVLDSDGSFFLYSKLTVDKSRWQQGNVFSCSVMHEALHNHYTQKSLSLSPGK
no binding	no binding			ActRIIB-Fc R56A (Fc fusion, Mutation in the background ActRIIB-Fc) SGRGEAETRECIYYNANWELERTNQSGLERCEGEQDKALHCYASWANSSGTIELVKKGCWLDDFNCYDRQECVATEENPQVYFCCCEGNFCNERFTHLPEAGGGTHTCPPCPAPELLGGPSVFLFPPKPKDTLMISRTPEVTCVVVDVSHEDPEVKFNWYVDGVEVHNAKTKPREEQYNSTYRVVSVLTVLHQDWLNGKEYKCKVSNKALPVPIEKTISKAKGQPREPQVYTLPPSREEMTKNQVSLTCLVKGFYPSDIAVEWESNGQPENNYKTTPPVLDSDGSFFLYSKLTVDKSRWQQGNVFSCSVMHEALHNHYTQKSLSLSPGK
			binds	ActRIIB-Fc F82A (Fc fusion, Mutation in the background ActRIIB-Fc) SGRGEAETRECIYYNANWELERTNQSGLERCEGEQDKRLHCYASWANSSGTIELVKKGCWLDDANCYDRQECVATEENPQVYFCCCEGNFCNERFTHLPEAGGGTHTCPPCPAPELLGGPSVFLFPPKPKDTLMISRTPEVTCVVVDVSHEDPEVKFNWYVDGVEVHNAKTKPREEQYNSTYRVVSVLTVLHQDWLNGKEYKCKVSNKALPVPIEKTISKAKGQPREPQVYTLPPSREEMTKNQVSLTCLVKGFYPSDIAVEWESNGQPENNYKTTPPVLDSDGSFFLYSKLTVDKSRWQQGNVFSCSVMHEALHNHYTQKSLSLSPGK
no binding	no binding			ActRIIB-Fc D80F (Fc fusion, Mutation in the background ActRIIB-Fc) SGRGEAETRECIYYNANWELERTNQSGLERCEGEQDKRLHCYASWANSSGTIELVKKGCWLFDFNCYDRQECVATEENPQVYFCCCEGNFCNERFTHLPEAGGGTHTCPPCPAPELLGGPSVFLFPPKPKDTLMISRTPEVTCVVVDVSHEDPEVKFNWYVDGVEVHNAKTKPREEQYNSTYRVVSVLTVLHQDWLNGKEYKCKVSNKALPVPIEKTISKAKGQPREPQVYTLPPSREEMTKNQVSLTCLVKGFYPSDIAVEWESNGQPENNYKTTPPVLDSDGSFFLYSKLTVDKSRWQQGNVFSCSVMHEALHNHYTQKSLSLSPGK
